Data as given in the supplement of paper PMC11865577.

Columns and labels:
Assay in all cases: pull-down binding Z-score (relative to library population); higher = stronger binding
Details in all cases: RNA library: Library-2
TO-N3 (biotin conjugate) = system: TO-N3 (biotin conjugate)
Outline: (§1)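 Biotin-conjugated small molecule (100 pmol) on streptavidin beads was incubated with 1 μg of heat-folded Cy5- or Cy3-end-labelled RNA library in phosphate/NaCl/KCl buffer at 25 °C for 60 min. Following three washes, RNA was eluted with hot SDS and hybridised at 55.5 °C for 20 h to a DNA barcode microarray. The binding value is a Z-score computed from the library mean and standard deviation, after subtraction of beads without compound and averaging of barcoded replicate probes with the highest and lowest excluded.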

[1] = system: TO-3-N3 (biotin conjugate)
Outline: as §1

[2] = system: TO-N3-2 (biotin conjugate)
Outline: as §1

[3] = system: TO-3-N3-2 (biotin conjugate)
Outline: as §1

| Sequence | pull-down binding Z-score (TO-N3 (biotin conjugate)) | pull-down binding Z-score [1] | pull-down binding Z-score [2] | pull-down binding Z-score [3] |
| --- | --- | --- | --- | --- |
| UCCACUAGCAUCUUUAUUGGAGAUGUGCCACAGCACACAGAUUGGUGGAAUUAGGAUGGUAGACAUCCUUAGGCAGAACCCAACAGAAGAGCAAGCCGUGGA | -0.545 | -0.764 | 0.0456 | -0.269 |
| UCCAUUUUUGGGUGUUUAUUACCACAAAAACAACAAAAGUUGGA [SHAPE_invitro_SARS-CoV-2_Motif_398] | -1.29 | -1.12 | -0.616 | 0.136 |
| UCCCAGUUUUGGGG [IAV_invivo_PB1_2_Motif_27+IAV_invivo_PB1_2_Motif_27] | -1.36 | -0.953 | -1.6 | -0.902 |
| UCCCAUGAGGGG [IAV_invivo_HA_4_Motif_6+IAV_invivo_HA_4_Motif_6] | -1.28 | -0.753 | -1.39 | -0.725 |
| UCCGAUUUACAGGA [DMSMaPseq_invitro_SARS-CoV-2_Motif_227] | -0.272 | -0.342 | -0.256 | -0.0117 |
| UCCGUAAGUAGGAUACUUACCUG [U1snRNP5ss-21] | -0.61 | -0.611 | -0.337 | -0.419 |
| UCCUAAAGAGGA | 0.703 | 1.2 | -0.731 | -0.431 |
| UCCUAAAGUGAAGUAUUUAUACUUUAUUAAAGGA [SHAPE_invitro_SARS-CoV-2_Motif_235] | -1.44 | -1.14 | -1.61 | -0.48 |
| UCCUAUUACGGA [SHAPE_invivo_SARS-CoV-2_Motif_121] | -0.905 | -0.479 | -1.27 | -0.643 |
| UCCUAUUUCUGAACAUGACUACCAGAUUGGUGGUUAUACUGAAAAAUGGGA | 0.012 | 0.1 | -0.953 | -0.375 |
| UCCUCAGUUUUACAUUCAACUCAGGA | -0.757 | -0.555 | -0.699 | -0.225 |
| UCCUCCCAGUGGCUGGUGGA [IAV_invivo_PB2_1_Motif_9+IAV_invivo_PB2_1_Motif_9] | -0.228 | -0.0747 | -0.225 | -0.322 |
| UCCUGUGGUAAUUUUAAAGUUACAAAAGGA | -0.795 | -0.823 | -0.669 | -0.424 |
| UCCUGUUUACCUUUUACAAUUAAUUGCCAGGA [SHAPE_invivo_SARS-CoV-2_Motif_533] | -1.01 | -0.84 | 0.272 | -0.351 |
| UCCUUACAUGGA | -0.321 | -0.557 | -1.16 | -0.672 |
| UCCUUUGACAUGAGUAAUGAAGGAUCUUAUUUCUUCGGAGACAAUGCAGAGGA [IAV_invivo_NP_5_Motif_26+IAV_invivo_NP_5_Motif_26] | -0.711 | -0.638 | -0.0358 | -0.286 |
| UCGCUUGCAAGUUGGAUUCAGAAUGAGUUUAACAAGGCAUGCGA [IAV_invivo_PA_3_Motif_18+IAV_invivo_PA_3_Motif_18] | -0.603 | -0.53 | -0.838 | -0.227 |
| UCGUCAAUAGGGCGA [IAV_invivo_PB2_1_Motif_18+IAV_invivo_PB2_1_Motif_18] | -0.554 | -0.228 | -0.56 | -0.184 |
| UCGUGUUAAAAAUCUGAAUUCUUCUAGAGUUCCUGAUCUUCUGGUCUAAACGAACUAAAUAUUAUAUUAGUUUUUCUGUUUGGAACUUUAAUUUUAGCCAUGG | -0.609 | -0.635 | -0.59 | -0.138 |
| UCUAAAUGAAACUCUUGUUACAAUGCCACUUGGCUAUGUAACACAUGGCUUAAAUUUGGA | -1.16 | -1.01 | -1.03 | -0.364 |
| UCUAACUUUAGAGUCCAACCAACAGAAUCUAUUGUUAGA | -0.148 | 0.171 | -0.918 | -0.138 |
| UCUAUACAGAACUGGA [SHAPE_invivo_SARS-CoV-2_Motif_242] | 0.79 | 1.18 | -0.496 | -0.0262 |

| Sequence | pull-down binding Z-score (TO-N3 (biotin conjugate)) | pull-down binding Z-score [1] | pull-down binding Z-score [2] | pull-down binding Z-score [3] |
| --- | --- | --- | --- | --- |
| UCUAUUAAAAUAUAAUGA [DMSMaPseq_invitro_SARS-CoV-2_Motif_395] | -0.185 | -0.0176 | -0.693 | -0.157 |
| UCUCCUCAUUUACUGUGAAUGUGAGGGGA [IAV_invivo_PB2_1_Motif_31+IAV_invivo_PB2_1_Motif_31] | -0.72 | -0.428 | -0.905 | -0.219 |
| UCUCGUUCACUGGGGA [IAV_invivo_PA_3_Motif_5+IAV_invivo_PA_3_Motif_5] | 0.198 | 0.366 | -0.216 | 0.0349 |
| UCUCUAAUGAGA | -1.38 | -0.823 | -1.53 | -0.652 |
| UCUCUAUGACAAACUUGUUUCAAGCUUUUUGGAAAUGAAGAGUGAAAAGCAAGUUGAACAAAAGAUCGCUGAGA [SHAPE_invitro_SARS-CoV-2_Motif_69] | -0.0892 | -0.0465 | 0.388 | -0.507 |
| UCUCUCUCAUUUUGUUAACUUAGACAACCUGAGAGCUAAUAACACUAAAGGUUCAUUGCCUAUUAAUGUUAUAGUUUUUGAUGGUAAAUCAAAAUGUGAAGA [DMSMaPseq_invitro_SARS-CoV-2_Motif_146] | -0.723 | -0.765 | -0.699 | -0.388 |
| UCUGAAGAAGUAGUGGAAAAUCCUACCAUACAGA [DMSMaPseq_invitro_SARS-CoV-2_Motif_122] | 0.657 | -0.124 | 0.514 | -0.226 |
| UCUGACAGUCCAUGUGAGUCUCAUGGAAAACAAGUAGUGUCAGA [SHAPE_invivo_SARS-CoV-2_Motif_364] | -0.868 | -0.582 | -0.73 | -0.0689 |
| UCUGCACUGUUAGCGGGUACAAUCACUUCUGGUUGGACCUUUGGUGCAGG | -0.815 | -0.66 | -1.07 | -0.38 |
| UCUGCCUAUACAGUUGAACUCGGUACAGAAGUAAAUGAGUUCGCCUGUGUUGUGGCAGA [SHAPE_invivo_SARS-CoV-2_Motif_57] | -0.415 | -0.71 | 1.36 | -0.334 |
| UCUGCUCGCAUAGUGUAUACAGCUUGCUCUCAUGCCGCUGUUGAUGCACUAUGUGAGAAGGCAUUAAAAUAUUUGCCUAUAGA | -0.615 | -0.598 | -0.0527 | -0.447 |
| UCUGGAGUAAAAGACUGUGUUGUAUUACACAGUUACUUCACUUCAGA | -0.481 | -0.0665 | -0.98 | -0.0465 |
| UCUGUACCGUCUGCGGUAUGUGGA [DMSMaPseq_invitro_SARS-CoV-2_Motif_240] | -0.694 | -0.562 | 0.111 | -0.475 |
| UCUGUUUGGAACUUUAAUUUUAGCCAUGGCAGA | -0.72 | -0.689 | 0.0796 | -0.0381 |
| UCUUAAGAGAGGUGAUAAAAGUGUAUAUUACACUAGUAAUCCUACCACAUUCCACCUAGAUGGUGAAGUUAUCACCUUUGACAAUCUUAAGA | 0.528 | 0.836 | -0.559 | -0.0579 |
| UCUUCAGGUUGGACAGCUGGUGCUGCAGCUUAUUAUGUGGGUUAUCUUCAACCUAGGA [DMSMaPseq_invitro_SARS-CoV-2_Multi_66_ComplexLevel_1] | 0.0485 | -0.145 | 0.0317 | -0.178 |
| UCUUGCCGAAUACCAUAAUGAAUCUGGCUUGA [SHAPE_invivo_SARS-CoV-2_Motif_27] | -0.631 | -0.617 | 0.0939 | -0.354 |
| UCUUUAAGGAAGGAAGUUCUGUUGAAUUAAAACACUUCUUCUUUGCUCAGGA [DMSMaPseq_invitro_SARS-CoV-2_Motif_265] | -1.23 | -0.904 | -0.953 | -0.179 |
| UCUUUAUUUGACAUGAGUAAAUUUCCCCUUAAAUUAAGGGGUACUGCUGUUAUGUCUUUAAAAGA [SHAPE_invitro_SARS-CoV-2_Motif_387] | -0.894 | -0.896 | -0.575 | 0.0957 |
| UCUUUCAUGGGA [DMSMaPseq_invitro_SARS-CoV-2_Motif_300] | 0.363 | 0.66 | -0.26 | 0.0379 |
| UGAACCACAAAUCA [SHAPE_invitro_SARS-CoV-2_Motif_451] | -1.04 | -0.745 | -0.906 | -0.565 |
| UGAAGUAUUUUGUGAAAAUAGGACCUGAGCGCACCUGUUGUCUAUGUGAUAGACGUGCCACAUGCUUUUCCACUGCUUCA [SHAPE_invitro_SARS-CoV-2_Motif_342] | -0.477 | -0.573 | 0.0857 | -0.335 |

| Sequence | pull-down binding Z-score (TO-N3 (biotin conjugate)) | pull-down binding Z-score [1] | pull-down binding Z-score [2] | pull-down binding Z-score [3] |
| --- | --- | --- | --- | --- |
| UGAAUUAGACUCAUUCA [DMSMaPseq_invitro_SARS-CoV-2_Motif_447] | -0.643 | -0.55 | -0.825 | -0.45 |
| UGACAUGACUCUUGAGGAAAUGUCA [IAV_invivo_NS1_NEP_8_Motif_7+IAV_invivo_NS1_NEP_8_Motif_7] | -0.87 | -0.475 | -1.21 | -0.773 |
| UGACAUUACACCAUGUUCUUUUGGUGGUGUCA | -1.29 | -0.87 | -1.47 | -0.423 |
| UGACCAGUCUUCUUACAUCGUUGAUAGUGUUACAGUGAAGAAUGGUUCCAUCCAUCUUUACUUUGAUAAAGCUGGUCA | -0.675 | -0.506 | -0.863 | -0.33 |
| UGACGAUGCUGUUGUGUGUUUCAAUAGCACUUAUGCAUCUCA [SHAPE_invitro_SARS-CoV-2_Motif_289] | 1.01 | 1.24 | -0.71 | -0.0833 |
| UGAGUACUGUAGGCACGGCACUUGUGAAAGAUCAGAAGCUGGUGUUUGUGUAUCUACUAGUGGUAGAUGGGUACUUA [DMSMaPseq_invitro_SARS-CoV-2_Multi_29_ComplexLevel_1] | 0.0497 | -0.254 | 0.628 | -0.0976 |
| UGAGUGUGACAUACCCAUUGGUGCAGGUAUAUGCGCUAGUUAUCAGACUCA | 0.865 | 0.734 | 0.541 | 0.422 |
| UGAUAAAUUCA [SHAPE_invivo_SARS-CoV-2_Motif_325] | -0.712 | -0.376 | -1.19 | -0.375 |
| UGAUAGUCAACAAACUGUUGGUCAACAAGACGGCAGUGAGGACAAUCA | 0.595 | 0.68 | -0.167 | 0.241 |
| UGAUGCAGCCAUGCAACGUAAGUUGGAAAAGAUGGCUGAUCA | -1.16 | -1.03 | -0.974 | -0.36 |
| UGAUGCGUAUUAUGACAUGGUUGGAUAUGGUUGAUACUAGUUUGUCUGGUUUUAAGCUAAAAGACUGUGUUAUGUAUGCAUCA | -0.861 | -0.867 | -0.569 | -0.285 |
| UGAUGGUGUUCCAUUUGUAGUUUCAACUGGAUACCACUUCA [DMSMaPseq_invitro_SARS-CoV-2_Motif_261] | -0.387 | -0.0305 | -0.82 | -0.236 |
| UGAUGUCACAGAUGUGACUCA | -1.09 | -0.773 | -0.946 | -0.677 |
| UGAUGUUUGUCA | -0.762 | -0.46 | -1.2 | -0.778 |
| UGAUUUUUGUGGAAAGGGCUAUCAUCUUAUGUCCUUCCCUCAGUCA [SHAPE_invivo_SARS-CoV-2_Motif_462] | -0.702 | -0.662 | -0.49 | -0.0472 |
| UGCAACGAUACCGAUACAAGCCUCACUCCCUUUCGGAUGGCUUAUUGUUGGCGUUGCA | -0.366 | -0.475 | -0.000368 | -0.134 |
| UGCAAGAGAUGGUUGUGUUCCCUUGAACAUAAUACCUCUUACA [DMSMaPseq_invitro_SARS-CoV-2_Motif_219] | -1.01 | -0.678 | -1.18 | -0.0456 |
| UGCACUUGACCCUCUCUCAGAAACAAAGUGUA | 0.625 | 0.756 | -0.236 | -0.162 |
| UGCAGAUUCAACUUUGAUUGGUGAUUGUGCA | 0.273 | 0.338 | -0.565 | 0.191 |
| UGCAGAUUUGGAUGAUUUCUCCAAACAAUUGCA | -0.0544 | 0.0526 | -0.51 | -0.117 |
